# Test system: Escherichia coli TOP10
# Test: shrunken log2 fold change of peptide-encoding DNA abundance (4.5 h post-induction vs induction); higher = less antimicrobial activity (less host growth inhibition)
# Details: time post-induction: 4.5 h; library: site-saturation at positions 5, 18, 19, 20
# 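Note: peptides expressed intracellularly from a pBAD plasmid library in pooled LB shake-flask culture, induced with 0.3% L-arabinose, DNA abundance read by NGS, three biological replicates, DESeq2 with apeglm shrinkage.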
row,Sequence,shrunken log2 fold change
1,RRIRWRPPRLPRPRPRPIIHPRP,-0.463
2,RRIRQRPPRLPRPRPRPDPEPRP,-0.202
3,RRIRRRPPRLPRPRPRPDNGPRP,-0.0214
4,RRIRHRPPRLPRPRPRPNMQPRP,-0.0674
5,RRIRSRPPRLPRPRPRPDDYPRP,0.0211
6,RRIRFRPPRLPRPRPRPVDKPRP,-0.022
7,RRIRDRPPRLPRPRPRPDMSPRP,-0.0165
8,RRIRQRPPRLPRPRPRPIGTPRP,0.0722
9,RRIRARPPRLPRPRPRPPTSPRP,0.525
10,RRIRTRPPRLPRPRPRPMHCPRP,-0.235
11,RRIRWRPPRLPRPRPRPDPGPRP,-0.041
12,RRIRMRPPRLPRPRPRPAVSPRP,0.494
13,RRIRHRPPRLPRPRPRPELLPRP,0.06
14,RRIRIRPPRLPRPRPRPQYPPRP,-0.32
15,RRIRERPPRLPRPRPRPQEMPRP,-0.391
16,RRIRWRPPRLPRPRPRPRYFPRP,-0.127
17,RRIRTRPPRLPRPRPRPYNKPRP,-1.03
18,RRIRKRPPRLPRPRPRPLFGPRP,0.439
19,RRIRLRPPRLPRPRPRPKGDPRP,0.182
20,RRIRSRPPRLPRPRPRPFFPPRP,-0.196
21,RRIRYRPPRLPRPRPRPGCEPRP,0.0164
22,RRIRQRPPRLPRPRPRPKIQPRP,-0.0232
23,RRIRARPPRLPRPRPRPYPKPRP,-0.149
24,RRIRTRPPRLPRPRPRPHQDPRP,-0.245
25,RRIRDRPPRLPRPRPRPGLCPRP,0.224

row,Sequence,shrunken log2 fold change
1,RRIRDRPPRLPRPRPRPDTLPRP,0.125
2,RRIRCRPPRLPRPRPRPWEVPRP,0.431
3,RRIRSRPPRLPRPRPRPGELPRP,0.0807
4,RRIRARPPRLPRPRPRPPWTPRP,0.385
5,RRIRTRPPRLPRPRPRPCHKPRP,0.014
6,RRIRTRPPRLPRPRPRPHAFPRP,-0.128
7,RRIRPRPPRLPRPRPRPRMWPRP,0.413
8,RRIRARPPRLPRPRPRPRHDPRP,0.128
9,RRIRGRPPRLPRPRPRPFKEPRP,-0.0428
10,RRIRARPPRLPRPRPRPEFAPRP,0.727
11,RRIRKRPPRLPRPRPRPQTRPRP,0.358
12,RRIRMRPPRLPRPRPRPCVIPRP,-0.04
13,RRIRDRPPRLPRPRPRPPYTPRP,-0.0539
14,RRIRCRPPRLPRPRPRPSKDPRP,-0.361
15,RRIRMRPPRLPRPRPRPYCKPRP,-1.02
16,RRIRGRPPRLPRPRPRPWYDPRP,-0.929
17,RRIRHRPPRLPRPRPRPFQPPRP,-0.135
18,RRIRERPPRLPRPRPRPYCHPRP,-0.467
19,RRIRTRPPRLPRPRPRPCVRPRP,0.116
20,RRIRFRPPRLPRPRPRPWCAPRP,0.185
21,RRIRNRPPRLPRPRPRPATIPRP,-0.44
22,RRIRPRPPRLPRPRPRPWLSPRP,-0.119
23,RRIRDRPPRLPRPRPRPECGPRP,1.71
24,RRIRERPPRLPRPRPRPFATPRP,0.119
25,RRIRDRPPRLPRPRPRPRHQPRP,0.0533

row,Sequence,shrunken log2 fold change
1,RRIRTRPPRLPRPRPRPMSEPRP,-0.00136
2,RRIRSRPPRLPRPRPRPCSNPRP,-0.0564
3,RRIRIRPPRLPRPRPRPAIEPRP,-0.0797
4,RRIRNRPPRLPRPRPRPRNLPRP,-0.0378
5,RRIRDRPPRLPRPRPRPLWKPRP,0.0179
6,RRIRCRPPRLPRPRPRPSNCPRP,-0.0679
7,RRIRGRPPRLPRPRPRPAMNPRP,0.542
8,RRIRLRPPRLPRPRPRPHFIPRP,-0.249
9,RRIRMRPPRLPRPRPRPDWPPRP,0.637
10,RRIRMRPPRLPRPRPRPDSDPRP,2.6
11,RRIRHRPPRLPRPRPRPLYQPRP,-0.112
12,RRIRWRPPRLPRPRPRPLGKPRP,0.136
13,RRIRNRPPRLPRPRPRPKPKPRP,0.211
14,RRIRSRPPRLPRPRPRPYEPPRP,-0.619
15,RRIRQRPPRLPRPRPRPLTRPRP,0.424
16,RRIRDRPPRLPRPRPRPSVIPRP,0.0683
17,RRIRRRPPRLPRPRPRPFFMPRP,-0.0188
18,RRIRCRPPRLPRPRPRPFVTPRP,0.663
19,RRIRLRPPRLPRPRPRPPVRPRP,0.426
20,RRIRHRPPRLPRPRPRPKSRPRP,-0.0231
21,RRIRFRPPRLPRPRPRPRNMPRP,-0.127
22,RRIRARPPRLPRPRPRPDPGPRP,0.29
23,RRIRCRPPRLPRPRPRPVEWPRP,0.000166
24,RRIRHRPPRLPRPRPRPHTWPRP,-0.301
25,RRIRFRPPRLPRPRPRPMTFPRP,-0.0585

row,Sequence,shrunken log2 fold change
1,RRIRPRPPRLPRPRPRPNKQPRP,0.0754
2,RRIRERPPRLPRPRPRPFLDPRP,-0.318
3,RRIRFRPPRLPRPRPRPFHRPRP,-0.0134
4,RRIRFRPPRLPRPRPRPGCQPRP,-0.157
5,RRIRVRPPRLPRPRPRPYKTPRP,0.0577
6,RRIRPRPPRLPRPRPRPHDDPRP,-0.421
7,RRIRARPPRLPRPRPRPRQCPRP,0.353
8,RRIRLRPPRLPRPRPRPYSYPRP,-0.977
9,RRIRVRPPRLPRPRPRPSQCPRP,-0.187
10,RRIRRRPPRLPRPRPRPLRAPRP,1.17
11,RRIRWRPPRLPRPRPRPYYFPRP,-0.692
12,RRIRHRPPRLPRPRPRPHRGPRP,-0.0108
13,RRIRRRPPRLPRPRPRPKFGPRP,0.172
14,RRIRLRPPRLPRPRPRPRYYPRP,-0.103
15,RRIRMRPPRLPRPRPRPMYDPRP,-0.0496
16,RRIRSRPPRLPRPRPRPCDEPRP,0.124
17,RRIRTRPPRLPRPRPRPAHCPRP,-0.168
18,RRIRRRPPRLPRPRPRPNKHPRP,0.117
19,RRIRSRPPRLPRPRPRPKYGPRP,-0.884
20,RRIRCRPPRLPRPRPRPSFDPRP,-0.282
21,RRIRARPPRLPRPRPRPPNVPRP,0.109
22,RRIRVRPPRLPRPRPRPNSNPRP,-0.74
23,RRIRKRPPRLPRPRPRPPLRPRP,0.708
24,RRIRPRPPRLPRPRPRPINYPRP,-0.402
25,RRIRCRPPRLPRPRPRPGNWPRP,0.0422

row,Sequence,shrunken log2 fold change
1,RRIRRRPPRLPRPRPRPASHPRP,0.4
2,RRIRWRPPRLPRPRPRPKMAPRP,0.859
3,RRIRSRPPRLPRPRPRPAVCPRP,0.185
4,RRIRPRPPRLPRPRPRPKHGPRP,0.127
5,RRIRQRPPRLPRPRPRPVTNPRP,0.0368
6,RRIRLRPPRLPRPRPRPNWCPRP,0.374
7,RRIRSRPPRLPRPRPRPCVSPRP,-0.391
8,RRIRERPPRLPRPRPRPRDYPRP,-0.521
9,RRIRPRPPRLPRPRPRPIESPRP,-0.252
10,RRIRCRPPRLPRPRPRPCDFPRP,-0.0328
11,RRIRVRPPRLPRPRPRPFLGPRP,-0.0486
12,RRIRKRPPRLPRPRPRPFIMPRP,-0.191
13,RRIRCRPPRLPRPRPRPDTLPRP,-0.96
14,RRIRFRPPRLPRPRPRPSVMPRP,-0.537
15,RRIRNRPPRLPRPRPRPGWAPRP,0.135
16,RRIRKRPPRLPRPRPRPAYCPRP,0.0801
17,RRIRCRPPRLPRPRPRPLCLPRP,-0.525
18,RRIRTRPPRLPRPRPRPYEKPRP,-0.657
19,RRIRTRPPRLPRPRPRPHNMPRP,-0.651
20,RRIRERPPRLPRPRPRPWCTPRP,-0.391
21,RRIRPRPPRLPRPRPRPRRPPRP,0.489
22,RRIRMRPPRLPRPRPRPMDWPRP,0.15
23,RRIRKRPPRLPRPRPRPGQEPRP,0.053
24,RRIRTRPPRLPRPRPRPMHRPRP,-0.142
25,RRIRMRPPRLPRPRPRPPSEPRP,0.962

row,Sequence,shrunken log2 fold change
1,RRIRERPPRLPRPRPRPDWQPRP,-0.552
2,RRIRPRPPRLPRPRPRPETQPRP,0.15
3,RRIRLRPPRLPRPRPRPYQVPRP,-0.0302
4,RRIRIRPPRLPRPRPRPDTDPRP,-0.194
5,RRIRIRPPRLPRPRPRPFAVPRP,0.0425
6,RRIRFRPPRLPRPRPRPSGCPRP,-0.0116
7,RRIRTRPPRLPRPRPRPGHDPRP,-0.108
8,RRIRCRPPRLPRPRPRPFWIPRP,-0.513
9,RRIRMRPPRLPRPRPRPPTGPRP,0.858
10,RRIRRRPPRLPRPRPRPHEAPRP,0.0262
11,RRIRYRPPRLPRPRPRPWYVPRP,-1.13
12,RRIRKRPPRLPRPRPRPWWGPRP,0.0849
13,RRIRQRPPRLPRPRPRPMWNPRP,-0.123
14,RRIRHRPPRLPRPRPRPWIQPRP,-0.0803
15,RRIRDRPPRLPRPRPRPLDKPRP,-0.0615
16,RRIRDRPPRLPRPRPRPEMAPRP,0.0683
17,RRIRQRPPRLPRPRPRPYRVPRP,-0.00926
18,RRIRKRPPRLPRPRPRPHFCPRP,-0.167
19,RRIRCRPPRLPRPRPRPIAEPRP,0.247
20,RRIRERPPRLPRPRPRPNLFPRP,0.0891
21,RRIRNRPPRLPRPRPRPQLCPRP,-0.00259
22,RRIRHRPPRLPRPRPRPGPDPRP,-0.227
23,RRIRFRPPRLPRPRPRPKASPRP,0.157
24,RRIRHRPPRLPRPRPRPPEEPRP,0.791
25,RRIRKRPPRLPRPRPRPWLAPRP,0.201
